The record followed here is the DeepSol protein solubility set.

This data set can be described thus: soluble on expression in E. coli; label from the status in PepcDB or PDB records.
For “MNAFNPTQFRAQFPALADAGVYLDSAATALKPQAVIDATHQFYCLSAGNVHRSQFAQAQRLTAQYEAARAKAARLLNAPDEKSIVWTRGTTEAINMVAQCYARPRLRPGDEIIVSVAEHHANLVPWLMVAQQTGAQVIKLPLNDRRLPDVERLPELITSRSRILALGQMSNVTGGCPDLASAISAAHAAGMVVMVDGAQGAVHFPADVQQLDIDFYAFSAHKLYGPTGIGVLYGKPELLEAMSPWLGGGKMIRDVSFEGFTTQSAPWKLEAGTPNVAGVIGLSAALEWLSDIDIEQAENWSRGLATLAEDALAKRPGFRSFRCQDSSLLAFDFVGVHHGDMVTLLAEYGIALRAGQHCAQPLLAELGVTGTLRASFAPYNTQHDVDALVNAVDRALELLVD”, the “soluble on expression in E. coli” value is recorded as “not soluble”. As for “MSLNDRNASKMLSTYNVAYWGGNYYDVNELGHISVCPDPDIREARVDLAQLVKKMQLEQGQRLPALFCFPQILQHRLRSINAAFKRARESFGYEGGYFLVYPIKVNQHRRVIESLVNSGEPLGLEAGSKAEMMAVLAHAGMTRSVIVCNGYKDREYIRLALIGEKLGHKVYLVIEKMSEIKMVLEEAERLNVVPRLGVRARLASQGSGKWQASGGEKSKFGLSATQVLQLVDMLREANSLESLQLLHFHLGSQLSNIRDISTGVRESARFYVELHKLGVNIQCFDVGGGLGVDYEGTRSQSDCSVNYGLNEYANNVIWGIGDACNEHGLPHPTVITESGRAVTAHHTVLVSNVIGVERNEFCEPQPPEAGAPRALESLWDTWQEMQEPENRRSLREWLHDSQMDLHDVHTQYAHGMLDLTHRAWAEQLYLSICNEIQKQLDPSNRAHRPIIDELQERMADKLYVNFSLFQSMPDAWGIDQLFPVLPLEGLDKPPERRAVLLDITCDSDGTIDHYIDGDGVATTMPMPPYDPENPPLLGFFMVGAYQEILGNMHNLFGDTAAVDVYVFPDGTVEVEQTDEGDTVADMLEYVQLNPEKLLEHFRGQVKETDLDTELQAQFLEEFEAGLYGYTYLEDEGHHHHHH”, the entry is “soluble”; as for “FLEVNYYSRVLGMNRVMNVLLPEESDHNPNWTNDSLKDLPVLYLLHGMSGNHFDWQRKSDIERLLRQTKLAVIMPAADLAWYTNTDYGMNYFDAISQELPRKVASLFPQISTKRKKHFVAGMSMGGYGAFKLAFSSSYFSYAASLSGTLISSLNYPGFLDMEKQAYWKGIFGDLDKFSGSKNDIFELAKRQSNTGIELPKLYAWVGQQDFFYGANEKAIPRLRKMGYDVSYETNPGDHEWYYWSKYIENILQWLPINYQAEKRLS”, “not soluble”; as for “MSLERKRVLVKFSGEALAGENGFGIENSILKFIASEIKELIKNQIEVGIVIGGGNIIRGVSAAKGGLIKRTSGDHMGMLATVINAIAIQEALESSGLEVRVQSAIQMEAFCETYIMRRAQRHLEKGRVVVFAAGTGNPYFTTDTTAILRAVEIDADMVIKATKVNGVYDKDPKQFDDAVFLNTLSYDEAMQDNIKVMDDTAIALAKDNKLPIVVCNMFEEGNLLKIIQGDTSLCSTVKNNEGHHHHHH”, “soluble”.

For “MAKYQELVEQLKRQIKSGIWHPGDKLPSLRRQSEHSGLSLMTVLHAYQILESQGWVTSQPRSGYRVAPNIKSSNEPQAPAAVSWTEQVDINEFIFDVLQASKNPSMINFGFAYPDPSLYPRYHVNRAMSAAARNMPISTTFDNLPPGNEQLRTIIAKRYAAKGIEISPDEIVITAGALEALTLSLQACTRPGDWVVVESPAFYGALQSLERLGLKALSVRTDPVTGIDLDSLERALQTHDVKACWLMSNFQNPLGFTLSNEKKQKLIELTQRYNVPVIEDDVYSELHAENDSVYPLRMFDDTGNTMLCSSFSKSLIAGLRIGWVAAGKRALEVQKLQLMSTLATSAPVQMTLVHYLTSRNYESHLKQLRKKLFERKSKMTNLLNELLPEEVKVLSQSGGYFIWLELPKHIDALQIYREALKDNISIAPGKMFSLTEQYDHCIRLNASFELNDKYVHALNLLANIIRDHLAK”, the “soluble on expression in E. coli” value was “not soluble”.

For “MAKNSKFDRVQVVDKAVDLYWEKGFHGTSMRNLQEVIDMRPGSIYATFGSKEGLFKESLQRYTQSGILHLEQCCHEQKSPLLGLKSFIHNIVVEKRSSAPSGMCMLVKTVTELTNENEELLTEAKRSLKIMESEFEKVLRQAQEIGEIEKEKDTKQLAQFVQVQIAGLRTYARTVDSDLPLQNMLDNMFSHYPF”, the “soluble on expression in E. coli” value was “not soluble”.

As for “MDTSLPSAILNNMVTATLILDDGLAIRYANPAAELLFSQSAKRIVEQSLSQLIQHASLDLALLTQPLQSGQSITDSDVTFVVDGRPLMLEVTVSPITWQRQLMLLVEMRKID”, the “soluble on expression in E. coli” value was “soluble”.

With “MGSDKIHHHHHHMNLRQLYYFKKLAEKEHYTIAAAELSITQPSLSHSIAELERELGVYLFEKQGRNIRLTKYGRFYLTYVEKSLAELEKGEKLLHELTSPSHGNIDLGFIYTMGAHTVPELVQNFTKAENHKDITFSFYQGATKSIIPDLKNEKFDLAICSYVENEPDIEFLPLTKQELVIVVAENHPLAKYDSIDLKDTADYSYIFFSDTSGLRPLIDSLFAEINIQPKIGCYVEEDTAMVGLVSVDYGISIMPKISSLAHYNVKVLSINEPKHERFIYLASLKNHYISPASKAFKDFALRYGEKHFL”, the “soluble on expression in E. coli” value is “not soluble”.

For “MARPETESKTIFGKRLRYVRLALGDPSREALAKSFSMTKNSIAFYERGEREPNLSVLQTYRTLYGVNINWLLTGQGKMFDTEYTKGDFDWNYFIKKIEGLEEILSNSDRSEKLNQEKIESSYEKLQQYLSRQGSTNRYTPKAATSLIDMKAKMANSYALSLFIDLLIRSISQKEVVANQ”, the “soluble on expression in E. coli” value was “not soluble”. For “MLRCCSALMCPTAVPSRVSPVAAAAAADIAGSSESTVSLVADVDKKNSQYKQIFLERFRKKLQSDKTGMNNLESFVELPEGVAPSAASIGPIKRGSEPLPPWIKLKVPKGMTHRPRFNRIRRSMREKNLSTVCEEAKCPNIGECWGGSDEEGTATATIMVMGSHCTRGCRFCSVLTSRRPPPLDPEEPEKVAAAVHEMGVDYIVMTMVDRDDLPDGGASHVCCCIHTIKKKNPELMLEALVGDFHGDLKLVEQLAVTPLSVYAHNIECVERITPRVRDRRASYRQSLQTLEHVTKWTNGNMLTKSSIMLGLGEEEAEVRQTLRDLRTAGVSAVTLGQYLQPSHTRLKVSRYAHPKEFEMWEKEAMDMGFLYCASGPMVRSSYRAGEYYIKNILKQRQSAEGGKAAAAATAVNAGTAIA” the value was “not soluble”.

In the case of “MNQRILSTLGFDKVKQQLLQFIVTAQGTNEVSELLPIADENKIQSWLNETQDGLKVQRLRGGIPIPKLENIQPHMKRIEIGADLNGIELAQVGRVLSTTSELTRFFDELSENEVDLEHHHHHH”, the “soluble on expression in E. coli” value was “not soluble”. Consider “MRGSHHHHHHGSACELGTMPHIDNDVKLDFKDVLLRPKRSTLKSRSEVDLTRSFSFRNSKQTYSGVPIIAANMDTVGTFEMAKVLCKFSLFTAVHKHYSLVQWQEFAGQNPDCLEHLAASSGTGSSDFEQLEQILEAIPQVKYICLDVANGYSEHFVEFVKDVRKRFPQHTIMAGNVVTGEMVEELILSGADIIKVGIGPGSVCTTRKKTGVGYPQLSAVMECADAAHGLKGHIISDGGCSCPGDVAKAFGAGADFVMLGGMLAGHSESGGELIERDGKKYKLFYGMSSEMAMKKYAGGVAEYRASEGKTVEVPFKGDVEHTIRDILGGIRSTCTYVGAAKLKELSRRTTFIRVTQQVNPIFSEAC”, for which the “soluble on expression in E. coli” value is recorded as “soluble”. As for “MSHGDQLEQYQDQYFDCIKKYDMPAALEVLELIAESCIELNDDDPLIEACERGASYLKCCLKYENLVNLHASQKINDHTLFFLNLEVRRRSTYQCFATTRSFLTPHRKRQLAKTMNAEPRIFAFGLNANNNLGVDTVQSALVDVPTEIYVPPVYEMKMSNFHSVFWCHDGKFFGCGETKNFMISKPDSELPRIVKFPMELDIQIWRNEMIVGIKALENGTLFQTDRRLYFVGDYQKSKAYLKTFHDEEFDMVTQLPYATPNFWITQSRPVSSISAYKLDDKKNVTILRVKSVSYWIQVYPDYWTELNPGYIKKRPVVYLLDDVEVKNIRIETVGCNIIYVVHELTLYFGKMTMTMVENSDGDENNLDNYILFVELHEYRTRSPYLCTGVATNKAQGVLMKCGDFPCVGFDYLEIAENRFRGNVQKYMFETVEKFMESYDVFENDEVSMDYLLSETEKAFNSGVMEQEIKLDWLGRTEKKYRYSNFYSFLGYVSQPRLLTGPPKCFTTDIDTLLTYKDPKLVARHRMKQLFEEFERVNYPGTDVWKPTGFLKSHDIPEEDNLSEGRYRSAAMKWCVNEFMEQFNVYRENPVFNPDNLVYKEILKYLINVIWYALDQWIIITEKTENDRVAPLLREIEHKVPDDEILFQTVYPEKILENRLREGSLKMEDLPEPLNIRVTFLLRHRDPKLKPTRFNLNTCRTFFNFLYPALEDFIDENNVLDLNKLYPDDVAIHRLIAQTYFVGHGLTDLEGSEKYDRSVYDSKGVRLEPMVRFMRKGREHFRGFLRRVPSTSAPGDGPIVFPTADHQAFFKMQRVLYSRLPLTEKLPIDIEDDLYSAAIVGLQDKRVLEVLTMDEKLRILEWYEKAKMPEALMDLLKQCIIESTSKNYYHIRYLFSQYPIMTQRFIAQYRPGIILWHRSPIPNPQIHHVRIITEMWPKNDFERTTRIPRKKFIKNGIVEDSKFYMIGSYLRRDAYKDIHYPAQKTTKLTELFNIDFPVNGPKKSKNQMMLITFPSREIVEEEEPPQEAEQSPSPDPEKIAKRREELRKKIAEKLAASKKKKKR”, the entry is “not soluble”. On to “MRILNQDNNIAVRNVLLMLTMEEAAELKDDLERLLSKKALNDHSHINDLEYEHELTISLYDENNIEEFDERIKKLIIQDE”, for which the “soluble on expression in E. coli” value was “not soluble”.

“EGFRIAFISDLHYKSLLKEKGLNNLVDLLIAQKPDVLLMGGDYQEGCEYVEPLFAALARVKTPMGTFGVMGNNDYERCHDEIIRTMKHYGMRPLEHEVDTLRKDGQQIILAGVRNPFDLKQNGVSPTLALSPNDFVILLVHTPDYVEDVSVANTDIALAGHTHGGQVRVFGYAPIQNSHYGTRF”: the “soluble on expression in E. coli” value is on record as “not soluble”. As for “MAHHHHHHMADTHFFAEANVLDDPRETTNAYKEIKYDLLRIERSINTEVRKRIEANKNIQQLIEHTANDMINKVLNKITTKIENISFELDKIIKKCDELEKMVGQIRLTLPTKIQTEMMGLKREVSDFFILLNKYANNRKKRNNVLFSKMENMNAYVSNKIHSEVSFTEDDFLFFRRESAKLLASDSDDEQGFRDAFLQEVEEIRDALALTVKAREQSDDDIIQVGAVRCGGAVQRCDVMRWDETRWAYFR”, the “soluble on expression in E. coli” value is listed as “not soluble”. As to “DAHSLWYNFTIIHLPRHGQQWCEVQSQVDQKNFLSYDCGSDKVLSMGHLEEQLYATDAWGKQLEMLREVGQRLRLELADTELEDFTPSGPLTLQVRMSCECEADGYIRGSWQFSFDGRKFLLFDSNNRKWTVVHAGARRMKEKWEKDSGLTTFFKMVSMRDCKSWLRDFLMHRKKRLE”, the “soluble on expression in E. coli” value is reported as “soluble”.

Consider “MHYPEPISKLIDSFMKLPGIGPKTAQRLAFHTLDMKEDDVVQFAKALVDVKRELTYCSVCGHITENDPCYICEDKQRDRSVICVVEDDKDVIAMEKMREYKGLYHVLHGSISPMDGIGPEDINIPSLIERLKSDEVSELILAMNPNLEGESTAMYISRLVKPIGIKVTRLAQGLSVGGDLEYADEVTLSKAIAGRTEM”, for which the “soluble on expression in E. coli” value is given as “not soluble”.

As for “DKEWNEKELQKLHCAFASLPKHKPGFWSEVAAAVGSRSPEECQRKYMENPRGKGSQKHVT”, the “soluble on expression in E. coli” value is on record as “soluble”.
